Patent US20240200091A1, “USE OF PROTOPORPHYRINOGEN OXIDASE” (BEIJING DABEINONG BIOTECHNOLOGY CO., LTD., priority 2021, published 2024)

Legend:
Type in all cases: in vivo
[1] = test system: Arabidopsis thaliana T1 plants; experiment: oxyfluorfen tolerance of transgenic Arabidopsis thaliana T1 plants (spray, grade of pesticide damage); details: 7 DAT, number of plants of 24 per genotype, grades
How it was run: (§1)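 Glufosinate-selected T1 lines expressing PPO variants, with control-vector and wild-type plants (24 per genotype), were sprayed 18 days after sowing with saflufenacil 25 or 100, sulfentrazone 450 or 900, flumioxazin 60 or 240, or oxyfluorfen 180 or 720 g ai/ha, or water. Injured/total leaf area was graded 0–3 at 7 DAT.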

[2] = test system: Arabidopsis thaliana T1 plants; experiment: saflufenacil tolerance of transgenic Arabidopsis thaliana T1 plants (spray, grade of pesticide damage); details: 7 DAT, number of plants of 24 per genotype, grades
How it was run: as §1

[3] = test system: Arabidopsis thaliana T1 plants; experiment: flumioxazin tolerance of transgenic Arabidopsis thaliana T1 plants (spray, grade of pesticide damage); details: 7 DAT, number of plants of 24 per genotype, grades
How it was run: as §1

[4] = test system: Arabidopsis thaliana T1 plants; experiment: sulfentrazone tolerance of transgenic Arabidopsis thaliana T1 plants (spray, grade of pesticide damage); details: 7 DAT, number of plants of 24 per genotype, grades
How it was run: as §1

[5] = test system: transgenic soybean plants; experiment: saflufenacil tolerance of transgenic soybean plants (spray, grade of pesticide damage); set-up: key to damage levels rated at grade: grade 0 means that the growth status of plants is essentially consistent with those sprayed with the blank solvent (water); grade 1 means that the average of the damage levels of plants is less than 10%; grade 2 means that the average of the damage levels of plants is greater than 100%; grade 3 means that the average of the damage levels of plants is 100%; details: for The grade of pesticide damage/plant: grade 0 / The grade of pesticide damage/plant: grade 1 / The grade of pesticide damage/plant: grade 2 / The grade of pesticide damage/plant: grade 3: 7 DAT, number of plants of 16 per genotype, grades
[6] = test system: transgenic soybean plants; experiment: oxyfluorfen tolerance of transgenic soybean plants (spray, grade of pesticide damage); details: for The grade of pesticide damage/plant: grade 0 / The grade of pesticide damage/plant: grade 1 / The grade of pesticide damage/plant: grade 2 / The grade of pesticide damage/plant: grade 3: 7 DAT, number of plants of 16 per genotype, grades; for tolerance to oxyfluorfen: soybean
[7] = test system: transgenic soybean plants; experiment: flumioxazin tolerance of transgenic soybean plants (spray, grade of pesticide damage); details: for The grade of pesticide damage/plant: grade 0 / The grade of pesticide damage/plant: grade 1 / The grade of pesticide damage/plant: grade 2 / The grade of pesticide damage/plant: grade 3: 7 DAT, number of plants of 16 per genotype, grades

B1: PPO12A: nucleotide sequence encoding microbial protoporphyrinogen oxidase PPO12 (SEQ ID NO:12), Arabidopsis thaliana/soybean common codon usage bias (nucleic acid)
DNA: ATGAAGAAAGCTCTTTTCCTGTACAGCTCGAGAGAAGGCCAGACAAAAAAGATTCTCAACTACATAGAAGGAGAGTTATCAAATTTTGAATGTGAATTGGTTGACCTTCACACGCTTGATGCTATTGATTTCTCCGTCTATGATCGGGTGCTCATTGGTGCTTCTATACGATATGGTCATTTGAACAAGAAGCTTTATCAGTTTATAGAGAACAACAGACAACAACTAGAGAATCATACCAAAGTTGCCTTCTTCTGCGTCAATCTTACTGCAAGGAAAGAAGATCAAGGAAAAGACACTCCTGAGGGGAGTGTTTACATCCAGAAATTTCTCAAGAAATCACCATGGCAACCGAAGTTGATTGGAGTTTTCGCGGGGGCATTATACTACCCTCGTTATGGATTCTTTGATAAGATGATGATCAAACTCATCATGACTTTAACTGATGGTGAAACCGACACAACAAAGGAAGTGGAGTATACAAATTGGAAAAAAGTATCTTTGTTTGCAAAGAAGTTTGCTGAGCTGTGA
modifications: The nucleotide sequence of PPO12A
**Q.** What does the source list for B1?
**A.** The grade of pesticide damage/plant: grade 0 ([1]; oxyfluorfen 180 g ai/ha (1×)): 24 plant; The grade of pesticide damage/plant: grade 1 ([1]; oxyfluorfen 180 g ai/ha (1×)): 0 plant; The grade of pesticide damage/plant: grade 2 ([1]; oxyfluorfen 180 g ai/ha (1×)): 0 plant; The grade of pesticide damage/plant: grade 3 ([1]; oxyfluorfen 180 g ai/ha (1×)): 0 plant; The grade of pesticide damage/plant: grade 0 ([1]; oxyfluorfen 720 g ai/ha (4×)): 20 plant; The grade of pesticide damage/plant: grade 1 ([1]; oxyfluorfen 720 g ai/ha (4×)): 4 plant; The grade of pesticide damage/plant: grade 2 ([1]; oxyfluorfen 720 g ai/ha (4×)): 0 plant; The grade of pesticide damage/plant: grade 3 ([1]; oxyfluorfen 720 g ai/ha (4×)): 0 plant; The grade of pesticide damage/plant: grade 0 ([2]; saflufenacil 25 g ai/ha (1×)): 24 plant; The grade of pesticide damage/plant: grade 1 ([2]; saflufenacil 25 g ai/ha (1×)): 0 plant; The grade of pesticide damage/plant: grade 2 ([2]; saflufenacil 25 g ai/ha (1×)): 0 plant; The grade of pesticide damage/plant: grade 3 ([2]; saflufenacil 25 g ai/ha (1×)): 0 plant; The grade of pesticide damage/plant: grade 0 ([2]; saflufenacil 100 g ai/ha (4×)): 0 plant; The grade of pesticide damage/plant: grade 1 ([2]; saflufenacil 100 g ai/ha (4×)): 24 plant; The grade of pesticide damage/plant: grade 2 ([2]; saflufenacil 100 g ai/ha (4×)): 0 plant; The grade of pesticide damage/plant: grade 3 ([2]; saflufenacil 100 g ai/ha (4×)): 0 plant; The grade of pesticide damage/plant: grade 0 ([3]; flumioxazin 60 g ai/ha (1×)): 24 plant; The grade of pesticide damage/plant: grade 1 ([3]; flumioxazin 60 g ai/ha (1×)): 0 plant; The grade of pesticide damage/plant: grade 2 ([3]; flumioxazin 60 g ai/ha (1×)): 0 plant; The grade of pesticide damage/plant: grade 3 ([3]; flumioxazin 60 g ai/ha (1×)): 0 plant; The grade of pesticide damage/plant: grade 0 ([3]; flumioxazin 240 g ai/ha (4×)): 24 plant; The grade of pesticide damage/plant: grade 1 ([3]; flumioxazin 240 g ai/ha (4×)): 0 plant; The grade of pesticide damage/plant: grade 2 ([3]; flumioxazin 240 g ai/ha (4×)): 0 plant; The grade of pesticide damage/plant: grade 3 ([3]; flumioxazin 240 g ai/ha (4×)): 0 plant; The grade of pesticide: grade 0 ([4]; sulfentrazone 450 g ai/ha (1×)): 24; The grade of pesticide: grade 1 ([4]; sulfentrazone 450 g ai/ha (1×)): 0; The grade of pesticide: grade 2 ([4]; sulfentrazone 450 g ai/ha (1×)): 0; The grade of pesticide: grade 3 ([4]; sulfentrazone 450 g ai/ha (1×)): 0; The grade of pesticide: grade 0 ([4]; sulfentrazone 900 g ai/ha (2×)): 23; The grade of pesticide: grade 1 ([4]; sulfentrazone 900 g ai/ha (2×)): 1; The grade of pesticide: grade 2 ([4]; sulfentrazone 900 g ai/ha (2×)): 0; The grade of pesticide: grade 3 ([4]; sulfentrazone 900 g ai/ha (2×)): 0; The grade of pesticide damage/plant: grade 0 ([5]; saflufenacil 50 g ai/ha (2×)): 16 plant; The grade of pesticide damage/plant: grade 1 ([5]; saflufenacil 50 g ai/ha (2×)): 0 plant; The grade of pesticide damage/plant: grade 2 ([5]; saflufenacil 50 g ai/ha (2×)): 0 plant; The grade of pesticide damage/plant: grade 3 ([5]; saflufenacil 50 g ai/ha (2×)): 0 plant; The grade of pesticide damage/plant: grade 0 ([5]; saflufenacil 100 g ai/ha (4×)): 16 plant; The grade of pesticide damage/plant: grade 1 ([5]; saflufenacil 100 g ai/ha (4×)): 0 plant; The grade of pesticide damage/plant: grade 2 ([5]; saflufenacil 100 g ai/ha (4×)): 0 plant; The grade of pesticide damage/plant: grade 3 ([5]; saflufenacil 100 g ai/ha (4×)): 0 plant; tolerance to saflufenacil ([5]; soybean, saflufenacil at four-fold field concentration (100 g ai/ha)): high-resistant tolerance; damage levels rated at grade ([5]; soybean, saflufenacil at two-fold field concentration (50 g ai/ha)): 0; tolerance to saflufenacil ([5]; soybean, saflufenacil, compared with the control vector and CK): different extents of tolerance; The grade of pesticide damage/plant: grade 0 ([6]; oxyfluorfen 360 g ai/ha (2×)): 16 plant; The grade of pesticide damage/plant: grade 1 ([6]; oxyfluorfen 360 g ai/ha (2×)): 0 plant; The grade of pesticide damage/plant: grade 2 ([6]; oxyfluorfen 360 g ai/ha (2×)): 0 plant; The grade of pesticide damage/plant: grade 3 ([6]; oxyfluorfen 360 g ai/ha (2×)): 0 plant; The grade of pesticide damage/plant: grade 0 ([6]; oxyfluorfen 720 g ai/ha (4×)): 16 plant; The grade of pesticide damage/plant: grade 1 ([6]; oxyfluorfen 720 g ai/ha (4×)): 0 plant; The grade of pesticide damage/plant: grade 2 ([6]; oxyfluorfen 720 g ai/ha (4×)): 0 plant; The grade of pesticide damage/plant: grade 3 ([6]; oxyfluorfen 720 g ai/ha (4×)): 0 plant; tolerance to oxyfluorfen ([6]; oxyfluorfen at four-fold field concentration (720 g ai/ha)): high-resistant tolerance; tolerance to oxyfluorfen ([6]; oxyfluorfen at two-fold field concentration (360 g ai/ha)): high-resistant tolerance; The grade of pesticide damage/plant: grade 0 ([7]; flumioxazin 120 g ai/ha (2×)): 16 plant; The grade of pesticide damage/plant: grade 1 ([7]; flumioxazin 120 g ai/ha (2×)): 0 plant; The grade of pesticide damage/plant: grade 2 ([7]; flumioxazin 120 g ai/ha (2×)): 0 plant; The grade of pesticide damage/plant: grade 3 ([7]; flumioxazin 120 g ai/ha (2×)): 0 plant; The grade of pesticide damage/plant: grade 0 ([7]; flumioxazin 240 g ai/ha (4×)): 16 plant; The grade of pesticide damage/plant: grade 1 ([7]; flumioxazin 240 g ai/ha (4×)): 0 plant; The grade of pesticide damage/plant: grade 2 ([7]; flumioxazin 240 g ai/ha (4×)): 0 plant; The grade of pesticide damage/plant: grade 3 ([7]; flumioxazin 240 g ai/ha (4×)): 0 plant; tolerance to flumioxazin ([7]; soybean, flumioxazin at different concentrations (120 and 240 g ai/ha)): high-resistant tolerance
